According to the supplement of paper PMC10567573:

B1: RHOBTB1 (parent)
chain: TFGDHHKDRRFAYGRSDVVVLCFS
B2: ADAMTSL2 (parent)
chain: KKPPEESTCFERPCFKWYTSPWSE

Variants of: B1
Assay: protein stability index of a GFP-peptide fusion (GPS, HEK-293T) (PSI 1-6); higher = more stable
Settings: c terminus: a fixed tail appended
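Note: lentivirally expressed fusions sorted by FACS into six bins by GFP to DsRed ratio, PSI derived from sequencing read proportions per bin multiplied by bin number.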

Variant	protein stability index
TFGDRHKDRRFAYGRSDVVVLCFS [H5R]	2.59
TFGDCHKDRRFAYGRSDVVVLCFS [H5C]	2.27
TFGDGHKDRRFAYGRSDVVVLCFS [H5G]	1.21
TFGDYHKDRRFAYGRSDVVVLCFS [H5Y]	2.15
TFGDQHKDRRFAYGRSDVVVLCFS [H5Q]	2.74
TFGDWHKDRRFAYGRSDVVVLCFS [H5W]	3.81
TFGDLHKDRRFAYGRSDVVVLCFS [H5L]	2.09
TFGDFHKDRRFAYGRSDVVVLCFS [H5F]	2.45
TFGDDHKDRRFAYGRSDVVVLCFS [H5D]	2.41
TFGDPHKDRRFAYGRSDVVVLCFS [H5P]	3.97
TFGDAHKDRRFAYGRSDVVVLCFS [H5A]	2.25
TWGDHHKDRRFAYGRSDVVVLCFS [F2W]	2.28
TKGDHHKDRRFAYGRSDVVVLCFS [F2K]	2.65
TLGDHHKDRRFAYGRSDVVVLCFS [F2L]	2.32
TIGDHHKDRRFAYGRSDVVVLCFS [F2I]	2.17
TNGDHHKDRRFAYGRSDVVVLCFS [F2N]	2.23
TEGDHHKDRRFAYGRSDVVVLCFS [F2E]	1.31
TMGDHHKDRRFAYGRSDVVVLCFS [F2M]	1.81
TCGDHHKDRRFAYGRSDVVVLCFS [F2C]	3.44
TAGDHHKDRRFAYGRSDVVVLCFS [F2A]	1.63
THGDHHKDRRFAYGRSDVVVLCFS [F2H]	1.85
TPGDHHKDRRFAYGRSDVVVLCFS [F2P]	3.35
TSGDHHKDRRFAYGRSDVVVLCFS [F2S]	1.02

Variant	protein stability index
TDGDHHKDRRFAYGRSDVVVLCFS [F2D]	2.19
TFGPHHKDRRFAYGRSDVVVLCFS [D4P]	2.46
TFGYHHKDRRFAYGRSDVVVLCFS [D4Y]	3.19
TFGQHHKDRRFAYGRSDVVVLCFS [D4Q]	3.51
TFGWHHKDRRFAYGRSDVVVLCFS [D4W]	3.1
TFGHHHKDRRFAYGRSDVVVLCFS [D4H]	1.51
TFGTHHKDRRFAYGRSDVVVLCFS [D4T]	2.54
TFGKHHKDRRFAYGRSDVVVLCFS [D4K]	2.06
TFGLHHKDRRFAYGRSDVVVLCFS [D4L]	3.29
TFGEHHKDRRFAYGRSDVVVLCFS [D4E]	3.4
TFGNHHKDRRFAYGRSDVVVLCFS [D4N]	2.15
TFGDHHKERRFAYGRSDVVVLCFS [D8E]	2.77
TFGDHHKYRRFAYGRSDVVVLCFS [D8Y]	4.4
TFGDHHKFRRFAYGRSDVVVLCFS [D8F]	1.92
TFGDHHKLRRFAYGRSDVVVLCFS [D8L]	4.19
TFGDHHKWRRFAYGRSDVVVLCFS [D8W]	3.29
TFGDHHKNRRFAYGRSDVVVLCFS [D8N]	2.29
TFGDHHKRRRFAYGRSDVVVLCFS [D8R]	2.96
TFGDHHKPRRFAYGRSDVVVLCFS [D8P]	2.77
TFGDHHKHRRFAYGRSDVVVLCFS [D8H]	2.82
TFGDHHKQRRFAYGRSDVVVLCFS [D8Q]	4.86
TFGDHHKGRRFAYGRSDVVVLCFS [D8G]	1.87
TFGDHHKSRRFAYGRSDVVVLCFS [D8S]	2.76

Variant	protein stability index
TFGDHLKDRRFAYGRSDVVVLCFS [H6L]	3.15
TFGDHQKDRRFAYGRSDVVVLCFS [H6Q]	2.14
TFGDHEKDRRFAYGRSDVVVLCFS [H6E]	3
TFGDHSKDRRFAYGRSDVVVLCFS [H6S]	2.21
TFGDHKKDRRFAYGRSDVVVLCFS [H6K]	2.33
TFGDHCKDRRFAYGRSDVVVLCFS [H6C]	1.2
TFGDHTKDRRFAYGRSDVVVLCFS [H6T]	1.94
TFGDHFKDRRFAYGRSDVVVLCFS [H6F]	2.33
TFGDHHKDRIFAYGRSDVVVLCFS [R10I]	1.96
TFGDHHKDRAFAYGRSDVVVLCFS [R10A]	2.32
TFGDHHKDRKFAYGRSDVVVLCFS [R10K]	2.21
TFGDHHKDRQFAYGRSDVVVLCFS [R10Q]	2.27
TFGDHHKDRGFAYGRSDVVVLCFS [R10G]	4.76
TFGDHHKDREFAYGRSDVVVLCFS [R10E]	1.47
TFGDHHKDRSFAYGRSDVVVLCFS [R10S]	3.52
TFGDHHKDRNFAYGRSDVVVLCFS [R10N]	3.35
TFGDHHKDRTFAYGRSDVVVLCFS [R10T]	2.93
TFGDHHKDRCFAYGRSDVVVLCFS [R10C]	2.7
TFGDHHKDRDFAYGRSDVVVLCFS [R10D]	2.03
TFGDHHKDRMFAYGRSDVVVLCFS [R10M]	1.76
TFGDHHKDRHFAYGRSDVVVLCFS [R10H]	2.59
TFGDHHKDRPFAYGRSDVVVLCFS [R10P]	3.19
TFEDHHKDRRFAYGRSDVVVLCFS [G3E]	2.98

Variant	protein stability index
TFADHHKDRRFAYGRSDVVVLCFS [G3A]	1.83
TFSDHHKDRRFAYGRSDVVVLCFS [G3S]	2.45
TFWDHHKDRRFAYGRSDVVVLCFS [G3W]	2.33
TFKDHHKDRRFAYGRSDVVVLCFS [G3K]	1.74
TFVDHHKDRRFAYGRSDVVVLCFS [G3V]	3.29
TFPDHHKDRRFAYGRSDVVVLCFS [G3P]	2.48
TFIDHHKDRRFAYGRSDVVVLCFS [G3I]	2.42
TFDDHHKDRRFAYGRSDVVVLCFS [G3D]	2.11
TFNDHHKDRRFAYGRSDVVVLCFS [G3N]	1.98
TFFDHHKDRRFAYGRSDVVVLCFS [G3F]	1.39
TFRDHHKDRRFAYGRSDVVVLCFS [G3R]	1.52
TFGDHHMDRRFAYGRSDVVVLCFS [K7M]	3.46
TFGDHHCDRRFAYGRSDVVVLCFS [K7C]	2.42
TFGDHHGDRRFAYGRSDVVVLCFS [K7G]	3.09
TFGDHHYDRRFAYGRSDVVVLCFS [K7Y]	3.88
TFGDHHWDRRFAYGRSDVVVLCFS [K7W]	3.28
TFGDHHNDRRFAYGRSDVVVLCFS [K7N]	3.44
TFGDHHSDRRFAYGRSDVVVLCFS [K7S]	3.12
TFGDHHDDRRFAYGRSDVVVLCFS [K7D]	2.76
TFGDHHTDRRFAYGRSDVVVLCFS [K7T]	3.37
TFGDHHFDRRFAYGRSDVVVLCFS [K7F]	3.68
TFGDHHLDRRFAYGRSDVVVLCFS [K7L]	1.46
TFGDHHADRRFAYGRSDVVVLCFS [K7A]	1.53

Variant	protein stability index
TFGDHHQDRRFAYGRSDVVVLCFS [K7Q]	2.38
PFGDHHKDRRFAYGRSDVVVLCFS [T1P]	2.61
QFGDHHKDRRFAYGRSDVVVLCFS [T1Q]	2.25
KFGDHHKDRRFAYGRSDVVVLCFS [T1K]	2.48
AFGDHHKDRRFAYGRSDVVVLCFS [T1A]	2.71
VFGDHHKDRRFAYGRSDVVVLCFS [T1V]	3.58
LFGDHHKDRRFAYGRSDVVVLCFS [T1L]	2.59
NFGDHHKDRRFAYGRSDVVVLCFS [T1N]	1.89
FFGDHHKDRRFAYGRSDVVVLCFS [T1F]	4.17
EFGDHHKDRRFAYGRSDVVVLCFS [T1E]	2.06
TFGDHHKDIRFAYGRSDVVVLCFS [R9I]	3.77
TFGDHHKDHRFAYGRSDVVVLCFS [R9H]	3.56
TFGDHHKDTRFAYGRSDVVVLCFS [R9T]	1.42
TFGDHHKDLRFAYGRSDVVVLCFS [R9L]	2.66
TFGDHHKDKRFAYGRSDVVVLCFS [R9K]	1.97
TFGDHHKDSRFAYGRSDVVVLCFS [R9S]	1.86
TFGDHHKDGRFAYGRSDVVVLCFS [R9G]	2.82
TFGDHHKDQRFAYGRSDVVVLCFS [R9Q]	3.83
TFGDHHKDVRFAYGRSDVVVLCFS [R9V]	3.55
TFGDHHKDPRFAYGRSDVVVLCFS [R9P]	3
TFGDHHKDDRFAYGRSDVVVLCFS [R9D]	3.4
TFGDHHKDERFAYGRSDVVVLCFS [R9E]	2.75
TFGDHHKDNRFAYGRSDVVVLCFS [R9N]	2.58

Variants of: B2
Assay: as above
Settings: c terminus: a fixed tail appended

Variant	protein stability index
KKPPEESTCFERPCFKWYTSYWSE [P21Y]	1.73
KKPPEESTCFERPCFKWYTSRWSE [P21R]	2.17
KKPPEESTCFERPCFKWYTSTWSE [P21T]	2.75
KKPPEESTCFERPCFKWYTSFWSE [P21F]	1.78
KKPPEESTCFERPCFKWYTSSWSE [P21S]	1.87
KKPPEESTCFERPCFKWYTSHWSE [P21H]	2.46
KKPPEESTCFERPCFKWYTSQWSE [P21Q]	2.2
KKPPEESTCFERPCFKWYTSVWSE [P21V]	2.33
KKPPEESTCFERPCFKWYTSLWSE [P21L]	2.4
KKPPEESTCFERPCFKWYTSEWSE [P21E]	2.72
KKPPEESTCFERPCFKWYTSIWSE [P21I]	2.38
KKPPEESTCFERPCFKWYTSMWSE [P21M]	1.44
KKPPEESTCFERPCFKWYTSNWSE [P21N]	2.16
KKPPEESTCFERPCFKWYTSWWSE [P21W]	1.68
KKPPEESTCFERPCFKWYTSGWSE [P21G]	2.16
KKPPEESTCFERPCFKWYTSKWSE [P21K]	2.7
KKPPEESTCFERPCFKWYTSPRSE [W22R]	2.95
KKPPEESTCFERPCFKWYTSPDSE [W22D]	3.79
KKPPEESTCFERPCFKWYTSPMSE [W22M]	2.6
KKPPEESTCFERPCFKWYTSPHSE [W22H]	3.6
KKPPEESTCFERPCFKWYTSPISE [W22I]	3.03
KKPPEESTCFERPCFKWYTSPSSE [W22S]	3.61
KKPPEESTCFERPCFKWYTSPESE [W22E]	4.18
KKPPEESTCFERPCFKWYTSPGSE [W22G]	3.51
KKPPEESTCFERPCFKWYTSPQSE [W22Q]	3.82

Variant	protein stability index
KKPPEESTCFERPCFKWYTSPTSE [W22T]	3.97
KKPPEESTCFERPCFKWYTSPCSE [W22C]	3.35
KKPPEESTCFERPCFKWYTSPNSE [W22N]	3.28
KKPPEESTCFERPCFKWYTSPPSE [W22P]	4
KKPPEESTCFERPCFKWYTSPVSE [W22V]	3.27
KKPPEESTCFERPCFKWYTSPYSE [W22Y]	3.05
KKPPEESTCFERPCFKWYTSPASE [W22A]	4.34
KKPPEESTCFERPCFKWYTSPFSE [W22F]	2.98
KKPPEESTCFERPCFKWYTSPLSE [W22L]	3.07
KKPPEESTCFERPCFKWYTSPKSE [W22K]	3.6
KKPPEESTCFERPCFKWYTSPWCE [S23C]	2.23
KKPPEESTCFERPCFKWYTSPWRE [S23R]	2.22
KKPPEESTCFERPCFKWYTSPWPE [S23P]	2.6
KKPPEESTCFERPCFKWYTSPWQE [S23Q]	2.47
KKPPEESTCFERPCFKWYTSPWDE [S23D]	2.48
KKPPEESTCFERPCFKWYTSPWLE [S23L]	2.34
KKPPEESTCFERPCFKWYTSPWIE [S23I]	2.6
KKPPEESTCFERPCFKWYTSPWME [S23M]	2.04
KKPPEESTCFERPCFKWYTSPWGE [S23G]	1.91
KKPPEESTCFERPCFKWYTSPWKE [S23K]	2.53
KKPPEESTCFERPCFKWYTSPWTE [S23T]	1.87
KKPPEESTCFERPCFKWYTSPWYE [S23Y]	2.35
KKPPEESTCFERPCFKWYTSPWAE [S23A]	1.74
KKPPEESTCFERPCFKWYTSPWNE [S23N]	2.5
KKPPEESTCFERPCFKWYTSPWWE [S23W]	2.19

Variant	protein stability index
KKPPEESTCFERPCFKWYTSPWFE [S23F]	1.69
KKPPEESTCFERPCFKWYTSPWHE [S23H]	2.55
KKPPEESTCFERPCFKWYTSPWVE [S23V]	2.23
KKPPEESTCFERPCFKWYTSPWEE [S23E]	3.02
KKPPEESTCFERPCFKWYTSPWSD [E24D]	2.76
KKPPEESTCFERPCFKWYTSPWSS [E24S]	2.07
KKPPEESTCFERPCFKWYTSPWSI [E24I]	1.73
KKPPEESTCFERPCFKWYTSPWSV [E24V]	1.83
KKPPEESTCFERPCFKWYTSPWSC [E24C]	2.22
KKPPEESTCFERPCFKWYTSPWSW [E24W]	2.09
KKPPEESTCFERPCFKWYTSPWSL [E24L]	1.72
KKPPEESTCFERPCFKWYTSPWSH [E24H]	2.04
KKPPEESTCFERPCFKWYTSPWSA [E24A]	2.06
KKPPEESTCFERPCFKWYTSPWSY [E24Y]	2.11
KKPPEESTCFERPCFKWYTSPWSQ [E24Q]	2.37
KKPPEESTCFERPCFKWYTSPWSK [E24K]	1.82
KKPPEESTCFERPCFKWYTSPWSP [E24P]	2.4
KKPPEESTCFERPCFKWYTSPWSM [E24M]	1.68
KKPPEESTCFERPCFKWYTSPWST [E24T]	1.97
KKPPEESTCFERPCFKWYTSPWSG [E24G]	2.27
KKPPEESTCFERPCFKWYTSPWSF [E24F]	2.27
KKPPEESTCFERPCFKWYTSPWSR [E24R]	1.83
KKPPEESTCFERPCFKWYTSPWSN [E24N]	1.6
